Laboratory results from the supplement of paper PMC10724198.
± gives the standard deviation of the averaged measurements.

Test system: Saccharomyces cerevisiae
Assay: protein stability index of tFT-peptide fusion (C-terminal peptide) (PSI (0-1 scale)); higher = more stable (slower turnover)
Details: genetic background: wild type; temperature: 30 C
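Also: PSI is a weighted mean of sequencing reads over stability bins, variants kept only with over 10 reads, mCherry proximal and sfGFP distal, peptide attached via GGGS linker.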

Sequence	protein stability index
LVCSRFLFAFHC	0.145 ± 0.011
LVFFLFFFRCFS	0.449 ± 0.035
LVFGFSLILRVG	0.2132 ± 0.00073
LVRDEVLKVKLV	0.297 ± 0.014
LVRGSRLIVIVG	0.423 ± 0.026
LYTFCSMDANPM	0.4016 ± 0.0012
MALAVRVVYCGA	0.378 ± 0.0028
MFTIYISFVFAF	0.269 ± 0.039
MSQVRYQRATRA	0.54 ± 0.067
NDKGKKTKIKIV	0.254 ± 0.058
NENQIKVIMLLV	0.266 ± 0.011
NRFRLFRLNFSV	0.302 ± 0.015
PATPPLRFPPSA	0.409 ± 0.0081
PCTFYLFWMFFV	0.3041 ± 0.002
PFGPTFSPRPFR	0.773 ± 0.022
PFLSLPFLFPSS	0.531 ± 0.14
PFSLCFVFPFFF	0.187 ± 0.0097

Sequence	protein stability index
PGWALLQLVFLK	0.456 ± 0.012
PHHSPPTGPPND	0.687 ± 0.022
PLHPSSTPATPF	0.732 ± 0.034
PLLPPLSTPPPA	0.385 ± 0.062
PLPSRAPVQFLL	0.319 ± 0.021
PLRLRCASLFAN	0.498 ± 0.086
PLVLPPINLFLV	0.189 ± 0.0031
PPLPPPPPHPPP	0.488 ± 0.016
PPPLLVRPWFLV	0.214 ± 0.05
PPPPHSAPLFLS	0.37 ± 0.0087
PPPPLFLIVLHL	0.434 ± 0.033
PPPPPLAIPHPT	0.7255 ± 0.0042
PPPPPPLPSPSS	0.35 ± 0.0078
PPPPPSRPFSPP	0.502 ± 0.015
PPPRSLSPPLLS	0.409 ± 0.0037
PPRSRPLLRPLP	0.746 ± 0.021

Test system: Saccharomyces cerevisiae
Assay: as above
Details: genetic background: cdc34-1; temperature: 37 C
Procedure: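 MPS profiling in S. cerevisiae of the tFT-X12 degron library: putative degron peptides plus stable controls, 12 aa, fused to the C-terminus of a sfGFP-mCherry timer. Cells are FACS-sorted into 8 mCherry/sfGFP bins and deep-sequenced. PSI runs from 0 (unstable) to 1 (stable). Backgrounds are wild type, das1Δ and doa10Δ at 30 °C, and wild type, das1Δ, cdc34-1 and cdc53-1 at 37 °C; 2-3 technical replicates each.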

Sequence	protein stability index
LVCSRFLFAFHC	0.45678 ± 0.00016
LVFFLFFFRCFS	0.506 ± 0.059
LVFGFSLILRVG	0.168 ± 0.025
LVRDEVLKVKLV	0.6432 ± 0.004
LVRGSRLIVIVG	0.444 ± 0.01
LYTFCSMDANPM	0.397 ± 0.019
MALAVRVVYCGA	0.349 ± 0.015
MFTIYISFVFAF	0.197 ± 0.0067
MSQVRYQRATRA	0.657 ± 0.074
NDKGKKTKIKIV	0.659 ± 0.025
NENQIKVIMLLV	0.4964 ± 0.0021
NRFRLFRLNFSV	0.68 ± 0.042
PATPPLRFPPSA	0.702 ± 0.032
PCTFYLFWMFFV	0.4168 ± 0.0038
PFGPTFSPRPFR	0.727 ± 0.048
PFLSLPFLFPSS	0.715 ± 0.026
PFSLCFVFPFFF	0.52 ± 0.021

Sequence	protein stability index
PGWALLQLVFLK	0.363 ± 0.004
PHHSPPTGPPND	0.673 ± 0.011
PLHPSSTPATPF	0.69 ± 0.03
PLLPPLSTPPPA	0.69 ± 0.0086
PLPSRAPVQFLL	0.624 ± 0.012
PLRLRCASLFAN	0.62 ± 0.021
PLVLPPINLFLV	0.575 ± 0.071
PPLPPPPPHPPP	0.458 ± 0.045
PPPLLVRPWFLV	0.618 ± 0.054
PPPPHSAPLFLS	0.604 ± 0.007
PPPPLFLIVLHL	0.5196 ± 0.0015
PPPPPLAIPHPT	0.655 ± 0.037
PPPPPPLPSPSS	0.664 ± 0.038
PPPPPSRPFSPP	0.698 ± 0.042
PPPRSLSPPLLS	0.642 ± 0.0076
PPRSRPLLRPLP	0.699 ± 0.0037

Same assay, conditions: genetic background: cdc53-1; temperature: 37 C

Sequence	protein stability index
LVCSRFLFAFHC	0.686 ± 0.022
LVFFLFFFRCFS	0.514 ± 0.016
LVFGFSLILRVG	0.203 ± 0.0096
LVRDEVLKVKLV	0.718 ± 0.011
LVRGSRLIVIVG	0.473 ± 0.028
LYTFCSMDANPM	0.439 ± 0.011
MALAVRVVYCGA	0.391 ± 0.01
MFTIYISFVFAF	0.277 ± 0.0087
MSQVRYQRATRA	0.676 ± 0.044
NDKGKKTKIKIV	0.72 ± 0.057
NENQIKVIMLLV	0.572 ± 0.092
NRFRLFRLNFSV	0.724 ± 0.052
PATPPLRFPPSA	0.7349 ± 0.0039
PCTFYLFWMFFV	0.565 ± 0.042
PFGPTFSPRPFR	0.767 ± 0.011
PFLSLPFLFPSS	0.769 ± 0.012
PFSLCFVFPFFF	0.5891 ± 0.0011

Sequence	protein stability index
PGWALLQLVFLK	0.298 ± 0.039
PHHSPPTGPPND	0.737 ± 0.018
PLHPSSTPATPF	0.741 ± 0.0032
PLLPPLSTPPPA	0.732 ± 0.023
PLPSRAPVQFLL	0.754 ± 0.017
PLRLRCASLFAN	0.692 ± 0.0095
PLVLPPINLFLV	0.729 ± 0.025
PPLPPPPPHPPP	0.52 ± 0.019
PPPLLVRPWFLV	0.725 ± 0.013
PPPPHSAPLFLS	0.697 ± 0.011
PPPPLFLIVLHL	0.621 ± 0.031
PPPPPLAIPHPT	0.709 ± 0.013
PPPPPPLPSPSS	0.742 ± 0.024
PPPPPSRPFSPP	0.7412 ± 0.0017
PPPRSLSPPLLS	0.7372 ± 0.0019
PPRSRPLLRPLP	0.726 ± 0.012

Same assay, conditions: genetic background: das1 deletion; temperature: 30 C

Sequence	protein stability index
LVCSRFLFAFHC	0.604 ± 0.037
LVFFLFFFRCFS	0.37 ± 0.049
LVFGFSLILRVG	0.272 ± 0.054
LVRDEVLKVKLV	0.643 ± 0.018
LVRGSRLIVIVG	0.333 ± 0.025
LYTFCSMDANPM	0.439 ± 0.019
MALAVRVVYCGA	0.293 ± 0.023
MFTIYISFVFAF	0.195 ± 0.029
MSQVRYQRATRA	0.608 ± 0.0071
NDKGKKTKIKIV	0.64 ± 0.067
NENQIKVIMLLV	0.344 ± 0.052
NRFRLFRLNFSV	0.606 ± 0.02
PATPPLRFPPSA	0.648 ± 0.01
PCTFYLFWMFFV	0.43 ± 0.018
PFGPTFSPRPFR	0.684 ± 0.015
PFLSLPFLFPSS	0.684 ± 0.0075
PFSLCFVFPFFF	0.567 ± 0.035

Sequence	protein stability index
PGWALLQLVFLK	0.346 ± 0.032
PHHSPPTGPPND	0.648 ± 0.008
PLHPSSTPATPF	0.667 ± 0.023
PLLPPLSTPPPA	0.663 ± 0.015
PLPSRAPVQFLL	0.643 ± 0.029
PLRLRCASLFAN	0.618 ± 0.034
PLVLPPINLFLV	0.63 ± 0.017
PPLPPPPPHPPP	0.477 ± 0.0095
PPPLLVRPWFLV	0.612 ± 0.029
PPPPHSAPLFLS	0.651 ± 0.019
PPPPLFLIVLHL	0.465 ± 0.03
PPPPPLAIPHPT	0.661 ± 0.04
PPPPPPLPSPSS	0.64 ± 0.021
PPPPPSRPFSPP	0.687 ± 0.0079
PPPRSLSPPLLS	0.643 ± 0.025
PPRSRPLLRPLP	0.666 ± 0.022
